In patent publication US20240034792A1 (HARBOUR BIOMED SHANGHAI, published 2024):
Like-named read-outs stand apart in the source and are kept apart here.

How the values were obtained:
[1] = target: T1, Human PD-1 expressed on CHO-K1 cells (CHO-K1/hPD-1) (human, UniProt Q15116 25-288); test: FACS, CHO-K1/hPD-1 cells
T1 construct: whole, on cells; also called CHO-K1 cells overexpressing human PD-1

[2] = target: T1, Human PD-1 expressed on CHO-K1 cells …; test: FACS, CHO-K1/hPD-1 cells; remark: listed apart in the source
Procedure, shortened: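 CHO-K1 cells overexpressing human or cynomolgus PD-1 were incubated 1 h at 4 °C with antigen-binding proteins: 8-11 concentrations, 5-fold dilutions, top final 100 nM or 300 nM, hIgG control. Binding was detected with Alexa Fluor 488 anti-human IgG (30 min, 4 °C) and read by flow cytometry.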

[3] = target: T2, Cynomolgus monkey PD-1-His protein (AcroBiosystems, # PD1-05223) (cynomolgus monkey, UniProt B0LAJ3 25-170); test: ELISA, plate-coated cynomolgus monkey PD-1-His
T2 construct: Bought reagent, coated on the ELISA plate; also called cynomolgus monkey PD-1 protein
T2 sequence (B0LAJ3 entry or part of it limits assumed): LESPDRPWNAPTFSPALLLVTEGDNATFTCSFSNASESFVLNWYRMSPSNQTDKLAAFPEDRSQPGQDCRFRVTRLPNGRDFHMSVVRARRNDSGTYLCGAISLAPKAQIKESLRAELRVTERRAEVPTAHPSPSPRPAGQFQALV
Procedure: Cynomolgus monkey PD-1-His protein (AcroBiosystems, # PD1-05223) was diluted to 2 μg/mL with PBS, added to a 96-well plate (Corning, #9018) at 100 μL/well, and incubated at 4° C. overnight. After the liquid was discarded, the plate was washed 3 times with PBST, blocked by adding 250 μL of 2% BSA, and incubated at room temperature for 1 h. The blocking buffer was discarded, and the plate was washed 3 times with PBST buffer (pH 7.4, containing 0.05% Tween-20). The test antigen-binding protein was diluted to 5 μg/mL, and added at 100 μL/well. The plate was incubated at 37° C. for 1 h. After the plate was washed 3 times with PBST buffer (pH 7.4, containing 0.05% Tween-20), a 4000-fold diluted goat anti-human HRP secondary antibody (Invitrogen, #A18805) was added. The plate was incubated at 37° C. for 1 h. After the plate was washed, TMB (Biopanda, # TMB-S-003) was added at 100 μL/well. The plate was left away from light at room temperature for 5 min. The reactions were terminated by adding 50 μL of stop buffer (BBI life sciences, #E661006-0200) to each well, and the absorbance values at 450 nm (OD450) were measured using a microplate reader (PerkinElemer, #Enspire).

[4] = target: T3, Human PD-1-His protein (ACROBiosystems, # PD1-H5221) (human, UniProt Q15116 25-167); test: ELISA, plate-coated human PD-1-His
T3 construct: Bought reagent, coated on the ELISA plate; also called human PD-1 protein; human PD-1 antigen; not shown: His tag
T3 sequence (Q15116 25-167 limits assumed): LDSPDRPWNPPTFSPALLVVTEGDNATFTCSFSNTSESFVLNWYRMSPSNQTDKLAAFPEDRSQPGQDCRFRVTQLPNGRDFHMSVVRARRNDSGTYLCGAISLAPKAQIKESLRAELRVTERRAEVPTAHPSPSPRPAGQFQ
Procedure: Human PD-1-His protein (ACROBiosystems, # PD1-H5221) was diluted to 2 μg/mL with PBS, added to a 96-well plate (Corning, cat#9018) at 100 μL/well, and incubated at 4° C. overnight. After the liquid was discarded, the plate was washed 3 times with PBST buffer (pH 7.4, containing 0.05% Tween-20), and 250 μL of 2% BSA blocking buffer was added. The plate was incubated at 37° C. for 1 h. The blocking buffer was discarded, and the plate was washed 3 times with PBST buffer (pH 7.4, containing 0.05% Tween-20). The test antigen-binding protein was 5-fold diluted in sequence at an initial concentration of 100 nM for a total of 8-10 concentration gradients, and added at 100 μL/well. The plate was incubated at 37° C. for 1 h. An isotype antibody was taken as a control. After the plate was washed 3 times with PBST buffer (pH 7.4, containing 0.05% Tween-20), a 4000-fold diluted goat anti-human HRP secondary antibody (Invitrogen, #A18805) was added. The plate was incubated away from light at 37° C. for 1 h. After the plate was washed 3 times with PBST buffer (pH 7.4, containing 0.05% Tween-20), TMB (Biopanda, # TMB-S-003) was added at 100 μL/well. The plate was left away from light at room temperature for about 5 min. The reactions were terminated by adding 50 μL of stop buffer (BBI life sciences, #E661006-0200) to each well, and the absorbance values at 450 nm (OD450) were measured using a microplate reader (PerkinElemer, #Enspire). The half maximal effective concentration (EC₅₀) was calculated from the measurement results.

T1 sequence (Q15116 25-288): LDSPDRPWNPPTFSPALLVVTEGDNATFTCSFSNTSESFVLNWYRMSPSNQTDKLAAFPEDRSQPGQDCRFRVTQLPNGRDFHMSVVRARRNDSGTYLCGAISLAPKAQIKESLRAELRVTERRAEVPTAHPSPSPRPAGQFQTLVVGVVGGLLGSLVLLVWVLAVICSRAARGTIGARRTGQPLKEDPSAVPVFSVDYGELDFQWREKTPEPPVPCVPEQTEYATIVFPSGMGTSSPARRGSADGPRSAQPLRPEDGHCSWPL

EC50 [1]: 7.99 nM | Maximum (MFI) [1]: 2.63e+06 | EC50 [2]: 8.94 nM | MFI Maximum [2]: 950000 | EC50 [3]: 0.031 nM | OD Maximum [3]: 3.06 | EC50 [4]: 0.043 nM | OD Maximum [4]: 2.85
B1: PR002481 (antibody, human IgG1, V domains shown)
VH: EVQLVETGGGLIQPGGSLRLSCAASGFNVSSHYMSWVRQAPGKGREWVSIIDGGGSTYYADSVKGRFTISRDNSKNRLYLQMNSLRAEDTAMYYCARATAVAEKNGYNYPFNYWGQGTLVTVSS
notes: Heavy-chain-only antibody (HCAb), human IgG1 Fc; two heavy chains, no light chain; also called R4004P556D1; anti-PD1 R4004P556D1 HCAb hG1
